Columns and labels:
[1] = test system: H460 xenograft; experiment: H460 xenograft model; format: in vivo, Hsd:Athymic Nude-Foxn1nu mice
Procedure: Briefly, to establish a large-cell lung cancer disease model, 1×10^6 H-460 cells in 100 μL RPMI1640+30% Matrigel HC (BD Biosciences, San Jose, Calif.) were implanted into the left flank of Hsd:Athymic Nude-Foxn1^nu mice (Harlan, Indianapolis, Ind.). Therapy was initiated when the tumor size in groups of 5 animals averaged ˜200 mm^3. Treatment using vehicle control, M53-PEG24-CEN09-106 at 0.1 and 1 mg/kg, and 10 mg/kg control M53-PEG24-CEN09-106 (as described above) consisted of multiple i.v. injections using the schedule of one injection every 7 days for 2 injections (q7d×2). Paclitaxel served as a positive control treatment group and was dosed i.v. at 15 mg/kg using the schedule of one injection every 2 days for 5 injections (q2d×5). Using this schedule, tumor volumes were measured for each group using calibrated vernier calipers and plotted against day of tumor implant for 24 days post-implant and 12 days post-initial dose, graphed and shown in FIG. 5.

[2] = test system: primary human umbilical vein endothelial cells (HUVEC); experiment: In vitro normal cell cytotoxicity; format: cell-based; conditions: 72 hrs, conjugates as antibody concentration, read-out: EC50
Procedure: (§1) In vitro normal cell cytotoxicity. The in vitro cytotoxic activity of M53-PEG24-CEN09-106, PEG24-CEN09-106, M53-PEG24-CEN-319, PEG24-CEN-319, proscillaridin and digitoxin against dysadherin positive primary normal human cells and a dysadherin positive human non-small cell lung carcinoma (NSCLC) cell line were tested and compared. The cells used were primary human renal epithelial cells (HREpC), primary human umbilical vein endothelial cells (HUVEC), primary human umbilical artery endothelial cells (HUAEC), and the A549 NSCLC cells. The primary cells were obtained from PromoCell GmbH, Heidelberg, Germany, and the NSCLC cell line A549 was obtained from ATCC. Primary renal epithelial cells were grown in Renal Epithelial Cell Growth Medium 2 (PromoCell GmbH, Heidelberg, Germany). Primary endothelial cells were grown in Endothelial Cell Growth Medium 2 (PromoCell GmbH, Heidelberg, Germany). The NSCLC cell line was grown in RPMI-1640 (HyClone, Thermo Scientific) supplemented with 10% fetal bovine serum. HREpC, HUVEC, HUAEC, and A549 cells were plated in 384 well plates at 1250, 1875, 2500, and 1250 cells/well (respectively) and allowed to incubate for 24 hrs at 37° C., 5% CO2, and 100% humidity. Various concentrations of conjugates M53-PEG24-CEN09-106 and […] and PEG24-CEN09-106 and […] were added to the wells in a total volume of 5 uL of media and the plates were incubated for an additional 72 hrs. After 72 hrs of exposure to agent, cell viability was evaluated using the Cell Titer-Glo Luminescent Cell Viability Assay (Promega, Madison, Wis.) according to the manufacturer's instructions. Luminescence measurements were performed using a Wallac Victor^2 Model 1420-041 assay plate reader (Perkin Elmer, Gaithersburg, Md.). EC50 values for each test agent were determined using GraphPad Prism 5 software.

[3] = test system: primary human umbilical artery endothelial cells (HUAEC); experiment: In vitro normal cell cytotoxicity; format: cell-based; conditions: HUAEC, 72 hrs; conjugates as antibody concentration; read-out: EC50
Procedure: as §1

[4] = test system: PANC-1 xenograft; experiment: PANC-1 xenograft model, alone and with gemcitabine; format: in vivo, C.B-17/IcrHsd-Prkdc scid Lyst bg mice
Procedure: A disease model of pancreatic cancer was established by implanting 5×10^6 PANC-1 cells in 100 μL DMEM into the left flank of 7 week old female C.B-17/IcrHsd-Prkdc^scidLyst^bg mice. Mice were then treated with M53-PEG24-CEN09-106 with a drug loading of 8 and/or gemcitabine when the tumor size in groups of 3 animals averaged ˜500 mm^3. Treatments consisted of either vehicle control, M53-PEG24-CEN09-106 at 0.2, 1 and 5 mg/kg, with and without 60 mg/kg gemcitabine or 60 mg/kg gemcitabine alone and consisted of multiple injections using the M53-PEG24-CEN09-106 schedule of one injection every 7 days for 3 injections (q7d×3) administered i.v. and the gemcitabine schedule of one injection every 3 days for 5 injections (q3d×5) administered i.p. Tumor volumes were measured for each group using calibrated vernier calipers and plotted against first day of tumor implant for 28 days post-initial dose, graphed and shown in FIG. 6.

[5] = test system: Panc-1 xenografts; experiment: Panc-1 subcutaneous xenograft model (tumor fragments); format: in vivo, female HRLN nu/nu mice; conditions: drug loading of 7; 1, 5, 15 mg/kg iv Q3Dx7 or Q7Dx3
Procedure: In another study, the Panc-1 subcutaneous xenograft model was used to evaluate antitumor activity of M53-PEG24-CEN09-106 with a drug loading of 7 drugs per antibody. Subcutaneous Panc-1 xenografts were initiated in female HRLN nu/nu mice by implanting 1 mm^3 PANC-1 tumor fragments were implanted subcutaneously into the right flank, tumor growth was monitored and mice bearing tumors of 80-120 mm^3 were selected for the study. Tumor volume was measured for each group 2× per week using calibrated vernier calipers plotted against day of first dose to produce the graph shown in FIG. 7. Among the treatment groups, no toxic effects were observed (toxicity determined as >10% weight loss during study period).

[6] = test system: A549 xenografts; experiment: Second A549 xenograft study (tumor fragments); format: in vivo, female HRLN nu/nu mice
Procedure: Briefly, to establish a non-small-cell lung cancer disease model, subcutaneous A549 xenografts were initiated in female HRLN nu/nu mice by implanting 8 mm^3 A549 tumor fragments subcutaneously into the left flank. Tumor growth was monitored, and mice bearing tumors of 60-180 mm^3 were selected for the study. Tumor-bearing mice (n=7 mice/group) with a group average tumor volume of approximately 110 mm^3 were treated i.p. with 5 mgs/kg M53-PEG24-CEN09-106 at q3d×4, 20 mg/kg scillarenin-4-amino-deoxy-L-xylopryanoside (an intermediate in the construction of M53-PEG24-CEN09-106 and known cytotoxin) at q2dx5, and 15 mg/kg paclitaxel at q1d×5. Tumor volumes were measured for each group using calibrated vernier calipers plotted against day of first dose for 100 days to produce the graph shown in FIG. 4.
Paclitaxel at its optimum dosing produced 80% growth inhibition of the tumor when compared to vehicle.

B1: M53-PEG24-CEN09-106: Class 1 EDC: antibody M53 conjugated to linker-ready agent PEG24-CEN09-106 (scillarenin, 4-amino-xyloside, PEG24) (conjugate)
heavy: EVQLVESGGGLVQPKGTLKLSCAASGFSFNTHAMNWVRQAPGKSLEWVARTMSKSNNYATYYADSVKDRFIIRADDSQSMLYLQMNNLKTEDTAMYYCVRDDPKRGMDYWGQGTSVTVSSAKTTPPSVYPLAPGSAAQTNSMVTLGCLVKGYFPEPVTVTWNSGSLSSGVHTFPAVLQSDLYTLSSSVTVPSSTWPSETVTCNVAHPASSTKVDKKIE
light: GIVMSQSPSSLAVSVGEKVTMSCKPSQSLLYSRNQKIYLAWYQQKPGQSPKLLIYWASTRESGVPDRFTGSGSGTDFTLIISSVRAEDLAVYYCQQYYNYPLTFGAGTKLELKRADAAPTVSIFPPSSEQLTSGGASVVCFLNNFYPKDINVKWKIDGSERQNGVLNSWTDQDSKDSTYSMSSTLTLTKDEYERHNSYTCEATHKTSTSPIVKSFNR
- weight loss ([1]; EDC 0.1 mg/kg q7dx2, paclitaxel 15 mg/kg q2dx5, H460 xenograft): no weight loss
- growth inhibition of the tumor compared to vehicle ([1]; drug loading of 8, 0.1 mg/kg i.v. q7dx2, H460 xenograft): 38%
- growth inhibition of the tumor compared to vehicle ([1]; drug loading of 8, 1 mg/kg i.v. q7dx2, H460 xenograft): 73%
- EC50 [2]: 30 nM
- EC50 [3]: 29 nM
- growth inhibition of the tumor ([4]; 0.2 mg/kg i.v. q7dx3 combined with 60 mg/kg gemcitabine i.p. q3dx5): 88%
- tumor response ([4]; 1 and 5 mg/kg i.v. q7dx3 combined with 60 mg/kg gemcitabine i.p. q3dx5): tumor regression
- growth inhibition of the tumor compared to vehicle ([4]; drug loading of 8, 0.2 mg/kg i.v. q7dx3, day 28 post-initial dose): 38%
- growth inhibition of the tumor compared to vehicle ([4]; drug loading of 8, 1 mg/kg i.v. q7dx3, day 28 post-initial dose): 48%
- growth inhibition of the tumor compared to vehicle ([4]; drug loading of 8, 5 mg/kg i.v. q7dx3, day 28 post-initial dose): 76%
- tumor response compared to vehicle group [5]: tumor reduction in a dose dependent manner
- growth inhibition of the tumor compared to vehicle ([6]; 100 days post-initial dose, EDC (loading 3) 5 mg/kg i.p. q3dx4, scillarenin aminoxyloside 20 mg/kg q2dx5, paclitaxel 15 mg/kg q1dx5): 72%
- weight loss ([6]; same dosing as efficacy arms, second A549 xenograft study): no weight loss
